# Assay results taken from patent US20230287081A1 (published 2023).
# Where two headings read alike, the source gives them in different places.
# B1: PD-1m-aGPC-3L (bispecific antibody)
# heavy: QVQLVQSGAEVKKPGASVKVSCKASGYTFTDYEMHWVRQAPGQGLEWMGALDPKTGDTAYSQKFKGRVTLTADKSTSTAYMELSSLTSEDTAVYYCTRFYSYTYWGQGTLVTVSSASTKGPSVFPLAPSSKSTSGGTAALGCLVKDYFPEPVTVSWNSGALTSGVHTFPAVLQSSGLYSLSSVVTVPSSSLGTQTYICNVNHKPSNTKVDKKVEPKSCDKTHTCPPCPAPPVAGPSVFLFPPKPKDTLMISRTPEVTCVVVDVSHEDPEVKFNWYVDGVEVHNAKTKPREEQYNSTYRVVSVLTVLHQDWLNGKEYKCKVSNKGLPSSIEKTISKAKGQPREPQVYTLPPSRDELTKNQVSLTCLVKGFYPSDIAVEWESNGQPENNYKTTPPVLDSDGSFFLYSKLTVDKSRWQQGNVFSCSVMHEALHNHYTQKSLSLSPGK
# light: LDSPDRPWNPPTFSPALLVVTEGDNATFTCSFSNTSESFVLNWYRMSPSNQTDKLAAFPEDRSQPGQDSRFRVTQLPNGRDFHMSVVRARRNDSGTYLCGAISLAPKVQIKESLRAELRVTERRAEVPTAHPSPSPRPAGQFQGGGGSGGGGSGGGGSGDVVMTQSPLSLPVTPGEPASISCRSSQSLVHSNRNTYLHWYLQKPGQSPQLLIYKVSNRFSGVPDRFSGSGSGTDFTLKISRVEAEDVGVYYCSQNTHVPPTFGQGTKLEIKRTVAAPSVFIFPPSDEQLKSGTASVVCLLNNFYPREAKVQWKVDNALQSGNSQESVTEQDSKDSTYSLSSTLTLSKADYEKHKVYACEVTHQGLSSPVTKSFNRGEC
# B2: PD-1m-aEGFRL (bispecific antibody)
# heavy: QVQLQESGPGLVKPSETLSLTCTVSGGSVSSGDYYWTWIRQSPGKGLEWIGHIYYSGNTNYNPSLKSRLTISIDTSKTQFSLKLSSVTAADTAIYYCVRDRVTGAFDIWGQGTMVTVSSASTKGPSVFPLAPSSKSTSGGTAALGCLVKDYFPEPVTVSWNSGALTSGVHTFPAVLQSSGLYSLSSVVTVPSSSLGTQTYICNVNHKPSNTKVDKKVEPKSCDKTHTCPPCPAPPVAGPSVFLFPPKPKDTLMISRTPEVTCVVVDVSHEDPEVKFNWYVDGVEVHNAKTKPREEQYNSTYRVVSVLTVLHQDWLNGKEYKCKVSNKGLPSSIEKTISKAKGQPREPQVYTLPPSRDELTKNQVSLTCLVKGFYPSDIAVEWESNGQPENNYKTTPPVLDSDGSFFLYSKLTVDKSRWQQGNVFSCSVMHEALHNHYTQKSLSLSPGK
# light: not shown
# B3: PD-1-aEGFRL (bispecific antibody)
# heavy: B2 heavy
# light: not shown
# B4: aPD-L1 (antibody, V domains shown)
# VH: EVQLLESGGGLVQPGGSLSLSCAASGFSFSSGYDMCWVRQAPGKGLEWIACIAAGSAGITYDANWAKGRFTISRDNSKNTLYLQMNSLRAEDTAVYYCARSAFSFDYAMDLWGQGTLVTVSS
# VL: DIQMTQSPSTLSASVGDRVTITCQASQSISSHLNWYQQKPGKAPKLLIYKASTLASGVPSRFSGSGSGTEFTLTISSLQPDDFATYYCQQGYSWGNVDNVFGGGTKVTVL
# Key:
# Assay in all cases: ELISA
# [1] = target: T1, hPD-L1-hIGg1Fc (SinoBiological) (human, UniProt Q9NZQ7 19-238)
# [2] = target: T1, hPD-L1-hIGg1Fc (SinoBiological); remark: listed apart in the source
# [3] = target: T1, hPD-L1-hIGg1Fc (SinoBiological); remark: listed apart in the source
# [4] = target: T1, hPD-L1-hIGg1Fc (SinoBiological); remark: listed apart in the source
# T1 sequence (Q9NZQ7 19-238): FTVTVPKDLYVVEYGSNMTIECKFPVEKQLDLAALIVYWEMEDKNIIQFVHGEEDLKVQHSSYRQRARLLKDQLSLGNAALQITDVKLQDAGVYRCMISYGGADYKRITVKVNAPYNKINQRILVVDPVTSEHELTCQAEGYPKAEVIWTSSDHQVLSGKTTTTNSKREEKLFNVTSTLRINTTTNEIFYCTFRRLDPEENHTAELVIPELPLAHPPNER
binder,measurement,setting,value
B1,EC50,[1],25.8 pM
B2,EC50,[2],39.4 pM
B3,EC50,[2],1540 pM
B4,EC50,[3],68 pM
same,EC50,[4],68 pM
